T1: Crc (Azotobacter vinelandii AEIV, UniProt C1DI50 1-259)
T1 sequence: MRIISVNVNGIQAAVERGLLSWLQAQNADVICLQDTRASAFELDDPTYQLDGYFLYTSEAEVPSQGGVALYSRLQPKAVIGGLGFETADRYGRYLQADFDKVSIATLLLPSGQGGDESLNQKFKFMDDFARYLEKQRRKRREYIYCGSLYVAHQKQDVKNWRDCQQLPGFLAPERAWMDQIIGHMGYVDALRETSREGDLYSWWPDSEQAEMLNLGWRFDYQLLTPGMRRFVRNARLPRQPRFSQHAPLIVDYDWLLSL

T2: Hfq-His (P. putida) (Pseudomonas putida, UniProt Q88DD3 1-86)
T2 sequence: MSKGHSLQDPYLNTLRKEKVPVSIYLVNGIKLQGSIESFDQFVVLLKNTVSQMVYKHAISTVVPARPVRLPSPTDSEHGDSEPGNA


What was measured:
Crc = biological target: T1, Crc; experiment: EMSA; Crc alone; RNA EMSA as in a cited protocol (ref. 13), excess tRNA, non-denaturing polyacrylamide gel; buffer, salt, pH and temperature not given in the material; conditions: protein: recombinant; tags: none (intein removed); label: 5'-32P; single strand
Hfq-His (P. putida) = biological target: T2, Hfq-His (P. putida); experiment: EMSA; Hfq alone, at the tested concentrations; RNA EMSA as in a cited protocol (ref. 13), excess tRNA, non-denaturing polyacrylamide gel; buffer, salt, pH and temperature not given in the material; conditions: protein: recombinant; tags: His; chain copies: 6; label: 5'-32P; single strand
Hfq-His;Crc [1] = biological target: T3, Hfq-His;Crc (Azotobacter vinelandii …, UniProt C1DLQ2;C1DI50 1-84;1-259, |); experiment: EMSA; about equimolar Hfq hexamer and Crc needed; RNA EMSA as in a cited protocol (ref. 13), excess tRNA, non-denaturing polyacrylamide gel; buffer, salt, pH and temperature not given in the material; conditions: protein: recombinant;recombinant; tags: C-terminal His6;none (intein removed); chain copies: 6;1; label: 5'-32P; single strand
T3 sequence (C1DLQ2 whole entry, one chain of several): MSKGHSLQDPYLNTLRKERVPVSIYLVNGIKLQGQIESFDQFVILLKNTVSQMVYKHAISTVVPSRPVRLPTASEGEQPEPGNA

Hfq-His;Crc [2] = biological target: T3, Hfq-His;Crc; experiment: EMSA; control RNA; stable complex not observed; RNA EMSA as in a cited protocol (ref. 13), excess tRNA, non-denaturing polyacrylamide gel; buffer, salt, pH and temperature not given in the material; conditions: protein: recombinant;recombinant; tags: C-terminal His6;none (intein removed); chain copies: 6;1; single strand

Binder	binding result (Crc)	binding result (Hfq-His (P. putida))	binding result (Hfq-His;Crc [1])	binding result (Hfq-His;Crc [2])
AAGCAACAAUCACAACAAGAGGAAAU (ssRNA) [gluP A-rich RNA oligo]	no binding	no binding	binds	
UUCCCCAUCUCCCCAUCCAUAGGGGC (ssRNA) [DmpR 6C control RNA]				no binding

Reference: publication PMC5429807, “Glucose uptake in Azotobacter vinelandii occurs through a GluP transporter that is under the control of the CbrA/CbrB and Hfq-Crc systems”
